Patent US20210380685A1

Columns and labels:
[1] = target: LRID Fab fused to the transmembrane portion of glycophorin A, on SP2/0 cells (Fab-GlycoA); assay: cell-based or functional assay
[2] = target: LRID Fab fused to the GPI signal sequence from decay accelerating factor, on SP2/0 cells (Fab-GPI); assay: cell-based or functional assay
LRID Fab fused to the GPI signal sequence from decay accelerating factor, on SP2/0 cells (Fab-GPI), sequence (VH, as listed by the source limits assumed, chain 1 of 2): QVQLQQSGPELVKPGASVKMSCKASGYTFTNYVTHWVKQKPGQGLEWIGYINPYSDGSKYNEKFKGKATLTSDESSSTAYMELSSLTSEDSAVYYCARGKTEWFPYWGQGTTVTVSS
LRID Fab fused to the GPI signal sequence from decay accelerating factor, on SP2/0 cells (Fab-GPI), sequence (VL, as listed by the source limits assumed, chain 2 of 2): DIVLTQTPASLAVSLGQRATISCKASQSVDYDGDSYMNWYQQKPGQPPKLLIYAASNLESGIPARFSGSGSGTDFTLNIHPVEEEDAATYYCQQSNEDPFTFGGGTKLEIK

LRID Fab fused to the transmembrane portion of glycophorin A, on SP2/0 cells (Fab-GlycoA), sequence (VH, as listed by the source limits assumed, chain 1 of 2): as the sequence (VH, as listed by the source limits assumed, chain 1 of 2) above
LRID Fab fused to the transmembrane portion of glycophorin A, on SP2/0 cells (Fab-GlycoA), sequence (VL, as listed by the source limits assumed, chain 2 of 2): as the sequence (VL, as listed by the source limits assumed, chain 2 of 2) above

B1: SM03 (antibody, V domains shown)
VH: QVQLQESGGGLVKPGGSLKLSCAASGFAFSIYDMSWVRQTPEKRLEWVAYISSGGGTTYYPDTVKGRFTISRDNAKNTLYLQMSSLKSEDTAMYYCARHSGYGSSYGVLFAYWGQGTLVTVSS
VL: DIQLTQTTSSLSASLGDRVTISCRASQDISNYLNWYQQKPDGTVKLLIYYTSILHSGVPSRFSGSGSGTDYSLTISNLEQEDFATYFCQQGNTLPWTFGGGTKLEIKR
modifications: here or on the partner: Held on the SP2/0 cell surface by the glycophorin A transmembrane portion; this part is not in the letters.
In the case of B1, the CMC activities, maximum killing [1] is reported as over 90%, the CMC killing of surrogate target cells, EC50 [1] is reported as 0.13 mg/mL and the CMC activities, maximum killing [2] is reported as over 90%. For the same binder, the CMC killing of surrogate target cells, EC50 [2] was 0.22 mg/mL.
